B1: P27152798 (antibody, human IgG1, kappa, L234A L235A, V domains shown)
VH: QVTLKESGPALVKPTQTLTLTCTFSGFSLSTPGMGVWWIRQPPGKALEWLADIWWDDNKYTNPSLKSRLTISKDTSKNQVVLTMTNMDPVDTATYYCARRANYGNPYYAQDYWGQGTTVTVSS
VL: DIVMTQTPLSLPVTPGEPASISCRSSQSIVHSNANTYLEWYLQKPGQSPQLLIYKVSNRFSGVPDRFSGSGSGTDFTLKISRVEAEDVGVYYCFQGSHVPWTFGQGTKVEIKR
notes: also called VH chain D3 / VL chain B7A
B2: P27152716 (antibody, human IgG1, kappa, L234A L235A, V domains shown)
VH: QVTLKESGPALVKPTQTLTLTCTFSGFSLSTPGMGVWWIRQPPGKALEWLADIWWDDNKYTNPSLKSRLTISKDTSKNQVVLTMTNMDPVDTATYYCARRANYGNPYYAQDYWGQGTTVTVSS
VL: DIVMTQTPLSLPVTPGEPASISCRSSQSIVSSWGNTYLEWYLQKPGQSPQLLIYKVSNRFSGVPDRFSGSGSGTDFTLKISRVEAEDVGVYYCFQGSHVPWTFGQGTKVEIKR
notes: produced by transient transfection in Expi293 cells and purified on MabSelect SuRe; also called VH chain D3 / VL chain D3
B3: P27122713 (antibody, human IgG1, kappa, L234A L235A, V domains shown)
VH: QVTLKESGPALVKPTQTLTLTCTFSGFSLSTSGMGVGWIRQPPGKALEWLADIWWDDNKYANPSLKSRLTISKDTSKNQVVLTMTNMDPVDTATYYCARRANYGNPYYAQDYWGQGTTVTVSS
VL: DIVMTQTPLSLPVTPGEPASISCRSSQSIVHSNGNTYLEWYLQKPGQSPQLLIYKVSNRFSGVPDRFSGSGSGTDFTLKISRVEAEDVGVYYCFQGSHVPWTFGQGTKVEIKR
notes: produced by transient transfection in Expi293 cells and purified on MabSelect SuRe; also called VH chain B7 / VL chain B7

Molecular target: T1, denatured human collagen type III (human, UniProt P02461 154-1221, limits assumed)
T1 construct: Bought human collagen III (ab7535, Abcam), denatured at 99 C for 15 minutes and then kept on ice for 5 minutes; also called denatured human collagen III
T1 sequence: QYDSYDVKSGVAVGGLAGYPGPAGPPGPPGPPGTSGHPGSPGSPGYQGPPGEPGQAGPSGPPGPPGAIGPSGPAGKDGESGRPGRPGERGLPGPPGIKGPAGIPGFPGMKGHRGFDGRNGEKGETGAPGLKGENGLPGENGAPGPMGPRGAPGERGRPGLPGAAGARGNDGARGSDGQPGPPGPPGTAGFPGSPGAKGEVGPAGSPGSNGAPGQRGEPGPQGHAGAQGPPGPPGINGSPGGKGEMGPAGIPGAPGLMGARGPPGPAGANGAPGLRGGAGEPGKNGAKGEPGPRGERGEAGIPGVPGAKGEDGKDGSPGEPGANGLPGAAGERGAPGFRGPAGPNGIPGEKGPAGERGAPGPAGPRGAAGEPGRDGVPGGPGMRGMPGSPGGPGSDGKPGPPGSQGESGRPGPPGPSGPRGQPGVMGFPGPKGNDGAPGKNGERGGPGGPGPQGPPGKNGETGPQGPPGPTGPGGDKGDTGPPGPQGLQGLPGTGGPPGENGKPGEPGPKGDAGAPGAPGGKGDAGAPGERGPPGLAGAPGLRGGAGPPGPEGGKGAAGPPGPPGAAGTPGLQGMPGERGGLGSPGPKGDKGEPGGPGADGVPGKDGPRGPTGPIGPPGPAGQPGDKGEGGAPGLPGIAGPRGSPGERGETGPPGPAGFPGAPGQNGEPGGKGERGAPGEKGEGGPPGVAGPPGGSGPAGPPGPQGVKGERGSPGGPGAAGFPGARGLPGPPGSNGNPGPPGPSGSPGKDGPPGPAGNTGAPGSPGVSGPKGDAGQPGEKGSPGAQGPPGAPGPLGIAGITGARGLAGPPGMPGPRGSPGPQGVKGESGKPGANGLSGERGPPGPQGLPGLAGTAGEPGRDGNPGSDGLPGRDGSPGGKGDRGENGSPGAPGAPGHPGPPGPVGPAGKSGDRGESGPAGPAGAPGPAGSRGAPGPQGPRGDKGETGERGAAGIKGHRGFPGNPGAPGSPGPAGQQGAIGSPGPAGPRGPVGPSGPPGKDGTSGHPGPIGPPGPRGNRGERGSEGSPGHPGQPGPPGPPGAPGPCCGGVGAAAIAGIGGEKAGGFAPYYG
Assay: ELISA, denatured collagen coated on plate, anti-human IgG peroxidase detection
Procedure: ELISA analysis. The binding activity and specificity of purified antibodies were determined by ELISA. Human collagens I (ab7533, Abcam), III (ab7535, Abcam), IV (ab7536, Abcam), an V (ab7537, Abcam), and mouse collagens I (NBP2-62423, NOVUS) and IV (3410-010-02, R&D) were used in ELISA analysis. “Denatured” collagen samples were prepared by incubation of collagens samples at 99° C. for 15 minutes followed by incubation on ice for 5 minutes Microtiter plates were coated with native or denatured collagen protein overnight at 4° C. The next day, plates were washed with PBS and blocked with 3% non-fat dry milk in PBS or 1% BSA. Serially diluted antibodies were added for binding to the coated antigen. Bound antibodies were detected with peroxidase-conjugated anti-human IgG secondary antibody (Jackson ImmunoResearch).

Binding result, binds:
B1, B2, B3

Source: patent publication US20230257453A1 (PROVIVA THERAPEUTICS HONG KONG, published 2023)
